# Measurements as given in PMC4808650.
# Like-named read-outs stand apart in the source and are kept apart here.
# How the values were obtained:
# [1] = biological target: Chlamydomonas outer arm axonemal dynein, α and β HC complex from strain oda2-t-lc2-bccp (Chlamydomonas reinhardtii) (UniProt Q39565)
# [2] = biological target: Chlamydomonas outer arm axonemal dynein, α and β HC complex from strain oda2-t-lc2-bccp (Chlamydomonas reinhardtii) (UniProt Q39565); remark: listed apart in the source
# Sequence of UniProt Q39565 (Q39565 whole entry, looked up, one chain of several): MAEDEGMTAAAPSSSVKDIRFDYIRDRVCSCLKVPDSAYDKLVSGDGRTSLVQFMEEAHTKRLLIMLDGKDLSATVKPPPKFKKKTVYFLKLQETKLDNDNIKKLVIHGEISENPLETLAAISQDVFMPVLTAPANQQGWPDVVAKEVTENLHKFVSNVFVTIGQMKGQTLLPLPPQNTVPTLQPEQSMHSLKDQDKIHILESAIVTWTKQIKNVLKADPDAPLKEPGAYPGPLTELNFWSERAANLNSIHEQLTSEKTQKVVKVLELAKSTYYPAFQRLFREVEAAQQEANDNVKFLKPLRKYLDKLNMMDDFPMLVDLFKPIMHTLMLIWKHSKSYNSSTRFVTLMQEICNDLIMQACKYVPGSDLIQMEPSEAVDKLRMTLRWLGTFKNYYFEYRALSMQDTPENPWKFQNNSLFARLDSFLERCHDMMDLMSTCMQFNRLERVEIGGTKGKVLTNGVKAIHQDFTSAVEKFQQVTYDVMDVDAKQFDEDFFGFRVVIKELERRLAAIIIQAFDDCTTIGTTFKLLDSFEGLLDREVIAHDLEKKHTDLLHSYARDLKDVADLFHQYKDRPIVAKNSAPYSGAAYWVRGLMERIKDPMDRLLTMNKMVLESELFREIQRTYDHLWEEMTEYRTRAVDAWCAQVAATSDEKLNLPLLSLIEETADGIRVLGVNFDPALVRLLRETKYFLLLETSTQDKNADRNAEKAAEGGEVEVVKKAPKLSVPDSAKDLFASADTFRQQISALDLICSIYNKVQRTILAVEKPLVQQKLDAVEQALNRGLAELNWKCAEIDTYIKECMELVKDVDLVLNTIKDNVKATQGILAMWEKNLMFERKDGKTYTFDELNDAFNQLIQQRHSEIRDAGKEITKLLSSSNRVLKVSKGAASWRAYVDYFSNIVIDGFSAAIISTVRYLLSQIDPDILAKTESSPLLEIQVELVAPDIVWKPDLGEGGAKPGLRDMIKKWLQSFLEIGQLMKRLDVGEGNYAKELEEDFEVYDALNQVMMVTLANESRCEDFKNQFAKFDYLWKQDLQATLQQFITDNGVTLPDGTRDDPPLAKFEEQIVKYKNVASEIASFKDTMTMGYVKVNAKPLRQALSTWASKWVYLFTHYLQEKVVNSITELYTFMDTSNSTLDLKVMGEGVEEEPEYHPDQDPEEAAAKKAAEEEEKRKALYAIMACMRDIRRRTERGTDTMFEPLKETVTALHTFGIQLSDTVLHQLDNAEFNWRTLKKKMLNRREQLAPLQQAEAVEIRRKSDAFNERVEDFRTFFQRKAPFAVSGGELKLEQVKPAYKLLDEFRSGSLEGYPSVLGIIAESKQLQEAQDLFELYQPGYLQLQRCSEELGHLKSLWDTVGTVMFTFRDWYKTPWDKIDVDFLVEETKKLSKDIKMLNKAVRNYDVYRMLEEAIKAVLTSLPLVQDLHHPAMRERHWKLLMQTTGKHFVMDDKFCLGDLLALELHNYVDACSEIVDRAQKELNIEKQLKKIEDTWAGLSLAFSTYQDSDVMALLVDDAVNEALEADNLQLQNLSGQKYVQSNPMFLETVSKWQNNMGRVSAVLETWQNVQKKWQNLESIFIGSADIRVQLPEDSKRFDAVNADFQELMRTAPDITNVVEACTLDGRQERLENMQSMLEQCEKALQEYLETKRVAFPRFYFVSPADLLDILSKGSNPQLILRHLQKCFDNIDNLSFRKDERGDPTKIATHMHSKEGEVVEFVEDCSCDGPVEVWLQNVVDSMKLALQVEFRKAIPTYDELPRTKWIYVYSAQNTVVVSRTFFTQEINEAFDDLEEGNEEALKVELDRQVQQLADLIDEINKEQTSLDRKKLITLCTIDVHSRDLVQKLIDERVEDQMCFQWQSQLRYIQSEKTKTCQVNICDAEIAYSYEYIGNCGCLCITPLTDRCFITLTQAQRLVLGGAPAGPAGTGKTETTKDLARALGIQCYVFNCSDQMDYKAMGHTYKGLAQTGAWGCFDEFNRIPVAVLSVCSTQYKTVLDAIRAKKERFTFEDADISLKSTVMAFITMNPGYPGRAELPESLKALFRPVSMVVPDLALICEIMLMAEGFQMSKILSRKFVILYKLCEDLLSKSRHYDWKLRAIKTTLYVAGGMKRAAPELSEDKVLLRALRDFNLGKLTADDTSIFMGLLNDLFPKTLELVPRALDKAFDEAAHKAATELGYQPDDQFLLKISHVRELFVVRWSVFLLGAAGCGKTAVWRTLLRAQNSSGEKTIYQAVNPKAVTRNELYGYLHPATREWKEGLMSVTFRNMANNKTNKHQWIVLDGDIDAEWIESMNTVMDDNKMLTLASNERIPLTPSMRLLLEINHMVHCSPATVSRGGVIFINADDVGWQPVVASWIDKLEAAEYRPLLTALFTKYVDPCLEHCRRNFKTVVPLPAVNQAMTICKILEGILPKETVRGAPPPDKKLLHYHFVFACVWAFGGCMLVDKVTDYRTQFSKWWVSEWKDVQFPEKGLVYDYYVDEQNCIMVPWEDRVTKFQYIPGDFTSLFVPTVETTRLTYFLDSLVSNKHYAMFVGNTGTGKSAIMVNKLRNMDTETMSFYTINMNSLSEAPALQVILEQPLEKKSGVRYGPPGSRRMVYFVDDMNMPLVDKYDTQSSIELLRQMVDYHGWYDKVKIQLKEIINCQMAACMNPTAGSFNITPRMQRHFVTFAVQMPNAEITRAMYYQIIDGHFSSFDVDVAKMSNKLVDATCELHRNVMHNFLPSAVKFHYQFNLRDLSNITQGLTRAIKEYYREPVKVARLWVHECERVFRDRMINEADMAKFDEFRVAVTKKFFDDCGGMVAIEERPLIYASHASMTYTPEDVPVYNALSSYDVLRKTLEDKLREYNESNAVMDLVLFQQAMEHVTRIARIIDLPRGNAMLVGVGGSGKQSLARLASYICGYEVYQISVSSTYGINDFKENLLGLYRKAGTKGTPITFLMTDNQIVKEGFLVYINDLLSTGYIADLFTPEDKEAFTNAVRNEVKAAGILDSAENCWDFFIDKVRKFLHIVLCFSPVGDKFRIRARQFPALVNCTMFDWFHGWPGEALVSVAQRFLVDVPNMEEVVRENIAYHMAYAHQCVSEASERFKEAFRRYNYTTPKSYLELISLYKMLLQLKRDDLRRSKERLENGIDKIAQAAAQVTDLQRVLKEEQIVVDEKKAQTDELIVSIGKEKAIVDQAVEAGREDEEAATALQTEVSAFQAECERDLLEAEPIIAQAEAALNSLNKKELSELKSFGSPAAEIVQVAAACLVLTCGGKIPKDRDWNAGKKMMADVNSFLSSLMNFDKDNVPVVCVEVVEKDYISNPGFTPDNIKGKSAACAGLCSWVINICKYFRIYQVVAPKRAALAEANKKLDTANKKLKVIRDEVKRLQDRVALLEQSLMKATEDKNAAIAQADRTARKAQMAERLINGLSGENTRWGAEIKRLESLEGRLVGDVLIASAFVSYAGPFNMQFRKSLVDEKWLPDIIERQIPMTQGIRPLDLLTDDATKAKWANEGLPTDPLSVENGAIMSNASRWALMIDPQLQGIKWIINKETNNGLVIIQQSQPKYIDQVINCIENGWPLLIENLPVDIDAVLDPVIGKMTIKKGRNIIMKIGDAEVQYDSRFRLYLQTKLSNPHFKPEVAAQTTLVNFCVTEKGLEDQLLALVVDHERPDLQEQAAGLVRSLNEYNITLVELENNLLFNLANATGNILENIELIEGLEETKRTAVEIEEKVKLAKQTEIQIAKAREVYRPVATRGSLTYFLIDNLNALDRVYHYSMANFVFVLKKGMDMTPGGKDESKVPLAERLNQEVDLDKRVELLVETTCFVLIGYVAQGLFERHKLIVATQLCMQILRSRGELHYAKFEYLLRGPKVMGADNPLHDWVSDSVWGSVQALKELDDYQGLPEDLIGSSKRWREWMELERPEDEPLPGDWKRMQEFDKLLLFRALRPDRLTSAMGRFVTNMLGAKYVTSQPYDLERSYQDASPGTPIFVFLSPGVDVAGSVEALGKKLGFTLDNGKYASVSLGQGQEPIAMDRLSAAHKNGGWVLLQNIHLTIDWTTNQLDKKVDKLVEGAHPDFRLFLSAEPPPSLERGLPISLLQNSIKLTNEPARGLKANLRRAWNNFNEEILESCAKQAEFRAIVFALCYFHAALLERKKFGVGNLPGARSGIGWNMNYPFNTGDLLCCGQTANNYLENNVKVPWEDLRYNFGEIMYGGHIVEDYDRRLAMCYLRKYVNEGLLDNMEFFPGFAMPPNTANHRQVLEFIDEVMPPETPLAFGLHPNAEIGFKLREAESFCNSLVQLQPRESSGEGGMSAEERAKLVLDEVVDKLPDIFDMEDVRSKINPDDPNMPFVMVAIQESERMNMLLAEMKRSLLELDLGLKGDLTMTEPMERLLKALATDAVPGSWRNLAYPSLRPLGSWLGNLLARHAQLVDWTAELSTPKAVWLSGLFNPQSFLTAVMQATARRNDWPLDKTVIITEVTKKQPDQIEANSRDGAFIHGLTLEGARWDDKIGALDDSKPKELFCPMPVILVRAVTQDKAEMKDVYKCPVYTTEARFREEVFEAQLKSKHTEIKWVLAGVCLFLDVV
substance,measurement,setting,value
Chlamydomonas axonemal microtubules from SIRT2-deacetylated tubulin (complex),L0 of microtubule gliding (microtubule length at vmax/2),[1],0.39 μm
same,vmax of microtubule gliding on dynein-coated slides (fit to Eq. 1),[1],1.66 μm/s
"Chlamydomonas axonemal microtubules, untreated (complex)",L0 of microtubule gliding (microtubule length at vmax/2),[1],0.43 μm
same,vmax of microtubule gliding on dynein-coated slides (fit to Eq. 1),[1],2.09 μm/s
"porcine brain microtubules, untreated (α-β-tubulin microtubules) (from UniProt P02550 1-451; P02554 1-445) (complex)",vmax of microtubule gliding on dynein-coated slides (fit to Eq. 1),[2],1.7 μm/s
α-βs-tubulin porcine microtubules (10 μg/mL subtilisin) (from UniProt P02550 1-451) (complex),vmax of microtubule gliding on dynein-coated slides (fit to Eq. 1),[2],1.93 μm/s
αs-βs-tubulin porcine microtubules (200 μg/mL subtilisin) (complex),vmax of microtubule gliding on dynein-coated slides (fit to Eq. 1),[2],2.27 μm/s
